Results on 1 molecule are retold here after article doi:10.1101/2023.10.12.561995 (bioRxiv, 2023).

This assay concerns the target S-protein of WT SARS-CoV-2 (S-trimer) used in BLI (SARS-CoV-2 wildtype, UniProt P0DTC2, stabilised). The assay can be described thus: BLI. In general terms: In BLI a coated tip is dipped into the sample, and binding shifts an interference pattern.

B1: R1-26 (mAb, human IgG1) (antibody, V domains shown)
VH: EVQLVESGGGLVQPGGSLRLSCAASGFTFSSYWMSWVRQAPGKGLEWVANIKQDGSEKYYVDSVKGRFTISRDNAKNSLYLQMNSLRAEDTAVYYCARGQLGPWVGVDYWGQGTLVTVSS
VL: NFMLTQPHSVSESPGKTVTISCTGSSGSIASNYVQWYQQRPGSAPTTVIYEDNQRPSGVPDRFSGSIDSSSNSASLTISGLKTEDEADYYCQSYDSSNWVFGGGTQLTVL
B1: the binding result is “binds”.
